Experimental data taken from patent US20260193293A1, “PEPTIDES CAPABLE OF INHIBITING PROTEIN-PROTEIN INTERACTIONS AT GABAB1A SUBUNIT AND USES THEREOF” (UNIVERSITY OF COPENHAGEN, priority 2022, published 2026).
Non-standard residues stand in square brackets, D forms with d. Cya = N[C@@H](CS(=O)(=O)O)C(=O)O; NMeE = CN[C@@H](CCC(=O)O)C(=O)O; NMeD = CN[C@@H](CC(=O)O)C(=O)O

B1: E(N-Me-D)… (peptide)
peptide: Ac-E[NMeD]DSDVWWGGADTD-NH2
SMILES: CC(=O)N[C@@H](CCC(=O)O)C(=O)N(C)[C@@H](CC(=O)O)C(=O)N[C@@H](CC(=O)O)C(=O)N[C@@H](CO)C(=O)N[C@@H](CC(=O)O)C(=O)N[C@H](C(=O)N[C@@H](Cc1c[nH]c2ccccc12)C(=O)N[C@@H](Cc1c[nH]c2ccccc12)C(=O)NCC(=O)NCC(=O)N[C@@H](C)C(=O)N[C@@H](CC(=O)O)C(=O)N[C@H](C(=O)N[C@@H](CC(=O)O)C(N)=O)[C@@H](C)O)C(C)C
B2: Ac-ETEFI(Cya)WGPTGDED-NH2 (AJAP-1WT mutant Ala182Cya) (peptide)
peptide: Ac-ETEFI[Cya]WGPTGDED-NH2
SMILES: CC[C@H](C)[C@H](NC(=O)[C@H](Cc1ccccc1)NC(=O)[C@H](CCC(=O)O)NC(=O)[C@@H](NC(=O)[C@H](CCC(=O)O)NC(C)=O)[C@@H](C)O)C(=O)N[C@@H](CS(=O)(=O)O)C(=O)N[C@@H](Cc1c[nH]c2ccccc12)C(=O)NCC(=O)N1CCC[C@H]1C(=O)N[C@H](C(=O)NCC(=O)N[C@@H](CC(=O)O)C(=O)N[C@@H](CCC(=O)O)C(=O)N[C@@H](CC(=O)O)C(N)=O)[C@@H](C)O
B3: e… (peptide)
peptide: Ac-[dE]DDSDVWWGGADTD-NH2
SMILES: CC(=O)N[C@H](CCC(=O)O)C(=O)N[C@@H](CC(=O)O)C(=O)N[C@@H](CC(=O)O)C(=O)N[C@@H](CO)C(=O)N[C@@H](CC(=O)O)C(=O)N[C@H](C(=O)N[C@@H](Cc1c[nH]c2ccccc12)C(=O)N[C@@H](Cc1c[nH]c2ccccc12)C(=O)NCC(=O)NCC(=O)N[C@@H](C)C(=O)N[C@@H](CC(=O)O)C(=O)N[C@H](C(=O)N[C@@H](CC(=O)O)C(N)=O)[C@@H](C)O)C(C)C
B4: (N-Me-E)… (peptide)
peptide: Ac-[NMeE]DDSDVWWGGADTD-NH2
SMILES: CC(=O)N(C)[C@@H](CCC(=O)O)C(=O)N[C@@H](CC(=O)O)C(=O)N[C@@H](CC(=O)O)C(=O)N[C@@H](CO)C(=O)N[C@@H](CC(=O)O)C(=O)N[C@H](C(=O)N[C@@H](Cc1c[nH]c2ccccc12)C(=O)N[C@@H](Cc1c[nH]c2ccccc12)C(=O)NCC(=O)NCC(=O)N[C@@H](C)C(=O)N[C@@H](CC(=O)O)C(=O)N[C@H](C(=O)N[C@@H](CC(=O)O)C(N)=O)[C@@H](C)O)C(C)C

What follows are binders tested against Sushi domains (SD1/2) protein of the GABAB1a (GB1a) subunit, recombinant (assay: FP competition).
Sequence of Sushi domains (SD1/2) protein of the GABAB1a (GB1a) subunit, recombinant (Q9Z0U4 29-158): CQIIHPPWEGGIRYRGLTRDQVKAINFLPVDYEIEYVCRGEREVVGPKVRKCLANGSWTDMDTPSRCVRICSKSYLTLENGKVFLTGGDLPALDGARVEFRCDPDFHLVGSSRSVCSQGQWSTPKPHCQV
Binder Ac-PWAIVWGPTVS-NH2 has a Ki of 463 nM.
For Ac-EDDSDVWWGG[dA]DTD-NH2 […aDTD], the Ki was 755 nM.
For Ac-EADSDVWWGGADTD-NH2, the Ki was 1240 nM.
Binder Ac-TETEFIAWGP-NH2 has a Ki of 574 nM.
Work on Ac-TETEFIAWG-NH2 yielded a Ki of 2470 nM.
For Ac-TEFIAWGPTGDED-NH2, the Ki was 102 nM.
Ac-TETEFIAWGPTGDEDAL-NH2 showed a Ki of 47 nM.
In the case of Ac-PWAIVWGPTV-NH2, the Ki is reported as 561 nM.
Binder Ac-EDDSDVWWGGA[dD]TD-NH2 […dTD] has a Ki of 637 nM.
Ac-QYPWAIVWGPTVSREDG-NH2 was tested, and the Ki was 650 nM.
Binder Ac-EDDSDVWWGGADAD-NH2 has a Ki of 480 nM.
For Ac-E[dD]DSDVWWGGADTD-NH2 [Ed…], the Ki was 567 nM.
Binder Ac-PWAIVW-NH2 has a Ki of 706 nM.
In the case of Ac-EDDSDVWWG[dA]ADTD-NH2 […aADTD], the Ki is reported as 1210 nM.
For B1, the Ki was 655 nM.
Ac-PWAIVWG-NH2 gave a Ki of 579 nM.
Work on Ac-TETEFIAWGPTG-NH2 yielded a Ki of 248 nM.
Ac-PWAIVWGP-NH2 was tested, and the Ki was 597 nM.
In the case of Ac-VWGPTVSREDG-NH2, the Ki is reported as 1740 nM.
In the case of Ac-EDDS[dD]VWWGGADTD-NH2 [EDDSd…], the Ki is reported as 1630 nM.
For Ac-FIAWGPTGDED-NH2, the Ki was 118 nM.
Ac-EDDSDVWWGGADT[dD]-NH2 […d] gave a Ki of 529 nM.
Binder Ac-ED[dD]SDVWWGGADTD-NH2 [EDd…] has a Ki of 736 nM.
Work on Ac-TETEFIAWGPTGD-NH2 yielded a Ki of 97 nM.
Work on Ac-ETEFIDWGPTGDED-NH2 [peptide 26 (Ac-…-NH2, AJAP-1WT mutant A182D)] yielded a fold improved affinity relative to the wild type (AJAP-1WT) of 3 fold.
Ac-ADDSDVWWGGADTD-NH2 was tested, and the Ki was 803 nM.
Ac-PWAIVWGPTVSR-NH2 gave a Ki of 433 nM.
Ac-PWAIVWGPTVSREDGGD-NH2 showed a Ki of 716 nM.
Binder Ac-TETEFIAWGPT-NH2 has a Ki of 236 nM.
Ac-EDDSDVWW[dA]GADTD-NH2 [EDDSDVWWaGADTD] was tested, and the Ki was 8700 nM.
Binder Ac-EDDADVWWGGADTD-NH2 has a Ki of 660 nM.
With Ac-EDASDVWWGGADTD-NH2 the Ki was 1830 nM.
With Ac-EDDSDVWWGGAATD-NH2 the Ki was 653 nM.
With B2 the Ki was 11.8 nM.
For Ac-PWAIVWGPTVSREDGGDPN-NH2, the Ki was 579 nM.
For Ac-PWAIVWGPTVSREDGGDP-NH2, the Ki was 597 nM.
Binder Ac-EDDSDVWWAGADTD-NH2 has a Ki of 485 nM.
With Ac-PWAIVWGPTVSRE-NH2 the Ki was 650 nM.
Work on B3 yielded a Ki of 483 nM.
Ac-PWAIVWGPTVSREDGGDPNS-NH2 was tested, and the Ki was 706 nM.
In the case of Ac-EDDSDVWWGGAD[dT]D-NH2 […tD], the Ki is reported as 469 nM.
In the case of Ac-EDDSDVWWGAADTD-NH2, the Ki is reported as 731 nM.
Ac-TETEFIAW-NH2 was tested, and the Ki was 1010 nM.
Work on Ac-YPWAIVWGPTVSREDG-NH2 yielded a Ki of 433 nM.
With Ac-IVWGPTVSREDG-NH2 the Ki was 15700 nM.
In the case of Ac-PWAIVWGPT-NH2, the Ki is reported as 716 nM.
Ac-IAWGPTGDED-NH2 showed a Ki of 38000 nM.
Ac-PWAIVWGPTVSREDGG-NH2 showed a Ki of 561 nM.
With B4 the Ki was 670 nM.
Binder Ac-EDDSDVWWGGADTA-NH2 has a Ki of 786 nM.
For Ac-EDDSDVAWGGADTD-NH2, the Ki was 8790 nM.
In the case of Ac-SQYPWAIVWGPTVSREDG-NH2, the Ki is reported as 762 nM.
With Ac-SSQYPWAIVWGPTVSREDG-NH2 the Ki was 29900 nM.
Ac-EDD[dS]DVWWGGADTD-NH2 [EDDs…] was tested, and the Ki was 752 nM.
Work on Ac-EFIAWGPTGDED-NH2 yielded a Ki of 112 nM.
Binder Ac-EDDSAVWWGGADTD-NH2 has a Ki of 3080 nM.
In the case of Ac-TETEFIAWGPTGDE-NH2, the Ki is reported as 69 nM.
Ac-AIVWGPTVSREDG-NH2 was tested, and the Ki was 5550 nM.
